Assay results from paper doi:10.1101/2021.02.17.431740 (bioRxiv, 2021).
Non-standard residues stand in square brackets, D forms with d. pY = N[C@@H](Cc1ccc(OP(=O)(O)O)cc1)C(=O)O

Key:
[1] = biological target: recombinant full-length human Grb2 (human, UniProt P62993-1 1-217); assay: ITC
[2] = biological target: recombinant full-length human CrkII (human, UniProt P46108-1 1-304); assay: ITC
Sequence of recombinant full-length human CrkII (P46108 whole entry): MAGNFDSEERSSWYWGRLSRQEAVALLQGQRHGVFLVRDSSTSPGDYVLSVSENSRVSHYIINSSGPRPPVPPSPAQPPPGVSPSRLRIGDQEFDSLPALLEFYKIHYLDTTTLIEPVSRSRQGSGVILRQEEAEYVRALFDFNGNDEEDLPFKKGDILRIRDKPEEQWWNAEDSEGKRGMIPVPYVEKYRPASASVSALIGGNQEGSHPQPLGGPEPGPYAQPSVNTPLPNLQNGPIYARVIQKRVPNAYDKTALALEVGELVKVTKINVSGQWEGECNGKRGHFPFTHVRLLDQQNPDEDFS

Sequence of recombinant full-length human Grb2 (P62993 whole entry): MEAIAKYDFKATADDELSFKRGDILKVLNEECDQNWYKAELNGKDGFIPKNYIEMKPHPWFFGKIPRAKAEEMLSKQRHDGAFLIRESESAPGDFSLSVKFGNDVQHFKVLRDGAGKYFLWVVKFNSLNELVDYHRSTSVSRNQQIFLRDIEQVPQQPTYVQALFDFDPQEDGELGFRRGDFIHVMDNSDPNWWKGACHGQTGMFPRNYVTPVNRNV

B1: PEAK3 phosphorylated peptide Ac-T(pY)SNLGQ-NH2 (peptide)
peptide: Ac-T[pY]SNLGQ-NH2
[1]
  stoichiometry N: 1
[2]
  Kd: 7.8 µM
  stoichiometry N: 1
